# Assay results from patent US20250066499A1 (SUNSHINE GUOJIAN PHARMACEUTICAL SHANGHAI, published 2025).
# Like-named read-outs stand apart in the source and are kept apart here.
# T1: CD73-ND-his (human, UniProt P21589 27-317)
# T1 construct: Biotinylated and captured on streptavidin in the ELISA
# T1 sequence: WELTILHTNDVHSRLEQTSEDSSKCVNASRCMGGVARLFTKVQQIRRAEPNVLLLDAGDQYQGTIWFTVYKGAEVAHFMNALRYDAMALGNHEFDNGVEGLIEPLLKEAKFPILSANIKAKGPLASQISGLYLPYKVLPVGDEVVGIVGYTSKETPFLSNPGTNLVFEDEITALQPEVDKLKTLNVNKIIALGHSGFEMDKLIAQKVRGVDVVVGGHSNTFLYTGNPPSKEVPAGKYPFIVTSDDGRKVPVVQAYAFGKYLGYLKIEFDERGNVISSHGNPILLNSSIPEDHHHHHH
# T2: CD73-ND-V186A (human, UniProt P21589 27-317)
# T2 construct: Alanine mutant of CD73-ND
# T2 sequence: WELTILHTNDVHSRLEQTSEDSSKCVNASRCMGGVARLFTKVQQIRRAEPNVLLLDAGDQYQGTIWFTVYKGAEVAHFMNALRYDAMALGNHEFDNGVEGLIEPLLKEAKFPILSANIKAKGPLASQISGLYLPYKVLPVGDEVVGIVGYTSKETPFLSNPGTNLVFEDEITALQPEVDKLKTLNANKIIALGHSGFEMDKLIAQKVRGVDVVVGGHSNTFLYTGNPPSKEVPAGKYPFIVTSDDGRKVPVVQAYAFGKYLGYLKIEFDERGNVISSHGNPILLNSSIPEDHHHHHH
# T3: CD73-ND-N187A (human, UniProt P21589 27-317)
# T3 construct: Alanine mutant of CD73-ND
# T3 sequence: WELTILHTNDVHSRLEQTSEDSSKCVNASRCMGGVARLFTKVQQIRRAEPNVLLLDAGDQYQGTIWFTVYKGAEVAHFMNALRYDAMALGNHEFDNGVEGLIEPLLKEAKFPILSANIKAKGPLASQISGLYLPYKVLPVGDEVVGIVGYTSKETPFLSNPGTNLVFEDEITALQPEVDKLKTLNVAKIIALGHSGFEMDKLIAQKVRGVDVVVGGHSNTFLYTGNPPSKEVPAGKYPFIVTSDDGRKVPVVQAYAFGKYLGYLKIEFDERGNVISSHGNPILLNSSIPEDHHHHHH
# T4: CD73-ND-P139A (human, UniProt P21589 27-317)
# T4 construct: Alanine mutant of CD73-ND
# T4 sequence: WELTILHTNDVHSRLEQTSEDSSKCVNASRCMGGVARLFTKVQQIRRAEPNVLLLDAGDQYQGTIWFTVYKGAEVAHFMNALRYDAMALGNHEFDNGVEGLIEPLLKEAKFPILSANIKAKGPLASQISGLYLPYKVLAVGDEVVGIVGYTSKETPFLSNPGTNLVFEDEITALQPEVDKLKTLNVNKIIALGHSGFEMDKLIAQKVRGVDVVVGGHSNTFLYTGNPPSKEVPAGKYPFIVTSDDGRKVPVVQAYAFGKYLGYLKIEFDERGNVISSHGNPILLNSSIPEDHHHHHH
# T5: CD73-ND-V140A (human, UniProt P21589 27-317)
# T5 construct: Alanine mutant of CD73-ND
# T5 sequence: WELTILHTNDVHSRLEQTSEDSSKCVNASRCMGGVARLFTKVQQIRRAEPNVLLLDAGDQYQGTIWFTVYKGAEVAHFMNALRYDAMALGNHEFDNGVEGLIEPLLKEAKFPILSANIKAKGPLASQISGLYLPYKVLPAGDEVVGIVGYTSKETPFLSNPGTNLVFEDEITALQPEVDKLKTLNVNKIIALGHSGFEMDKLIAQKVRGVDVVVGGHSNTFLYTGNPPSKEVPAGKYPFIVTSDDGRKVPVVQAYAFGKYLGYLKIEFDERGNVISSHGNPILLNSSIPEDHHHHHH
# Assays:
# CD73-ND-his [1] = target: T1, CD73-ND-his; experiment: ELISA; decline multiple of Top against CD73-ND
# Protocol: (§1) The ELISA plates were coated with SA protein diluted to 1.5 μg/mL in coating buffer (50 mM carbonate coating buffer, pH 9.6) and incubated overnight at 4° C. The supernatant was discarded, and the plates were washed three times with PBST. Then, 5% skimmed milk powder prepared with PBS was added for blocking and the plates were incubated for 2 h at 37° C. After washing the plates once with PBST, CD73-biotin protein (prepared by biotinylating CD73-His protein according to the EZ-Link NHS-Biotin Reagent instructions) was diluted to 0.5 μg/mL and added at 100 μL/well for incubation at room temperature for 1 h. The plates were washed three times with PBST, and the prepared murine-derived monoclonal antibodies against human CD73 were serially diluted with 1% BSA buffer prepared with PBST and added to the ELISA plates at 100 μl/well. The plates were incubated at 37° C. for 1 h. After washing the plates three times with PBST, HRP-labeled goat anti-mouse IgG secondary antibody was added and the plates were incubated for 30 min at 37° C. After washing the plates three times with PBST, the residual droplets were patted dry on absorbent paper as much as possible. Then, 100 μl of TMB color developing solution was added to each well, and the plates were incubated in the dark at room temperature for 5 min for color development. Subsequently, 50 μl of 2M H₂SO₄ stop solution was added to each well to terminate the substrate reaction. The OD values were read at 450 nm using a multimode microplate reader to analyze the binding ability of the tested antibodies to the target antigen human CD73-His.
# (§2) Referring to the experimental method in Example 3, the affinity of 48A11-HuV33 for various mutant proteins of CD73-ND was determined. The SA protein was diluted to 1 μg/mL for coating the ELISA plates, and the biotinylated CD73 protein (CD73-biotin) was used at a concentration of 0.1 μg/mL.
# CD73-ND-V186A [2] = target: T2, CD73-ND-V186A; experiment: ELISA; decline multiple of Top against CD73-ND
# Protocol: as §1, §2
# CD73-ND-N187A [3] = target: T3, CD73-ND-N187A; experiment: ELISA; decline multiple of Top against CD73-ND
# Protocol: as §1, §2
# CD73-ND-V186A [4] = target: T2, CD73-ND-V186A; experiment: ELISA; decline multiple of EC50 against CD73-ND
# Protocol: as §1, §2
# CD73-ND-his [5] = target: T1, CD73-ND-his; experiment: ELISA, biotinylated antigen on streptavidin plate
# Protocol: as §1, §2
# CD73-ND-P139A = target: T4, CD73-ND-P139A; experiment: ELISA, biotinylated antigen on streptavidin plate
# Protocol: as §1, §2
# CD73-ND-V140A = target: T5, CD73-ND-V140A; experiment: ELISA, biotinylated antigen on streptavidin plate
# Protocol: as §1, §2
# CD73-ND-his [6] = target: T1, CD73-ND-his; experiment: ELISA, biotinylated antigen on streptavidin plate; remark: listed apart in the source
# Protocol: as §1, §2
# CD73-ND-V186A [7] = target: T2, CD73-ND-V186A; experiment: ELISA, biotinylated antigen on streptavidin plate
# Protocol: as §1, §2
# CD73-ND-N187A [8] = target: T3, CD73-ND-N187A; experiment: ELISA, biotinylated antigen on streptavidin plate
# Protocol: as §1, §2
binder,measurement,setting,value
"48A11-HuV33 (antibody, human IgG4, V domains shown, Humanized) VH: QVQLVQSGAEVKKPGASVKVSCKASGYTFTSYWMHWVRQAPGQGLEWIGEINPSIGRTNYNEKFKSRVTLTRDTSTSTAYMELSSLRSEDTAVYYCARRVYGTMDYWGQGTLVTVSS VL: DIQMTQSPSSLSASVGDRVTITCKASQDINSYLSWFQQKPGKSPKLLIYRANIWVDGVPSRFSGSGSGQDYTFTISSLQPEDIATYYCLQYDELYTFGQGTKVEIK",Ratio(Top),CD73-ND-his [1],1 fold
same,Ratio(Top),CD73-ND-V186A [2],1.2 fold
same,Ratio(Top),CD73-ND-N187A [3],1.1 fold
same,Ratio(EC50),CD73-ND-V186A [4],1.4 fold
same,EC50,CD73-ND-his [5],0.178 nM
same,EC50,CD73-ND-P139A,4.34 nM
same,EC50,CD73-ND-V140A,0.098 nM
same,EC50,CD73-ND-his [6],0.091 nM
same,EC50,CD73-ND-V186A [7],0.16 nM
same,EC50,CD73-ND-N187A [8],0.105 nM
